One block for each binder: values may come before it.
Columns and labels:
[1] = biological target: T1, Core_ININ-es_KEEE; assay: two-hybrid library CCmax; settings: mean of both orientations;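 further: natural log of median RNA to DNA barcode read ratio; higher means stronger binding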
T1 chain: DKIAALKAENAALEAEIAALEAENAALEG

[2] = biological target: T2, APC1115-AA; assay: two-hybrid library CCmax;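 further: natural log of median RNA to DNA barcode read ratio; higher means stronger binding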
T2 chain: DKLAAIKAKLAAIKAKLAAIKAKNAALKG

[3] = biological target: T3, APC1242-AA; assay: two-hybrid library CCmax; settings: mean of both orientations;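 further: natural log of median RNA to DNA barcode read ratio; higher means stronger binding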
T3 chain: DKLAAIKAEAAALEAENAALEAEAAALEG

[4] = biological target: T4, APC1916-AA; assay: two-hybrid library CCmax; settings: mean of both orientations;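 further: natural log of median RNA to DNA barcode read ratio; higher means stronger binding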
T4 chain: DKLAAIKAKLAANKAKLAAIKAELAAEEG

[5] = biological target: T5, APC1987-AA; assay: two-hybrid library CCmax; settings: mean of both orientations
T5 chain: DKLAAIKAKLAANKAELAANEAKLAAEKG

[6] = biological target: T6, APC222-AA; assay: two-hybrid library CCmax; settings: mean of both orientations
T6 chain: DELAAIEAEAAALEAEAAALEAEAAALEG

[7] = biological target: T7, APC2257-AA; assay: two-hybrid library CCmax; settings: mean of both orientations
T7 chain: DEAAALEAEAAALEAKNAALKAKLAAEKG

[8] = biological target: T8, APC2375-AA; assay: two-hybrid library CCmax; settings: mean of both orientations
T8 chain: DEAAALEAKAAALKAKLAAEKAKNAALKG

[9] = biological target: T9, APC2474-AA; assay: two-hybrid library CCmax; settings: mean of both orientations
T9 chain: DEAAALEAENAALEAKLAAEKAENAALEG

[10] = biological target: T10, APC2543-AA; assay: two-hybrid library CCmax; settings: mean of both orientations
T10 chain: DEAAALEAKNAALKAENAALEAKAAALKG

[11] = biological target: T11, APC2556-AA; assay: two-hybrid library CCmax; settings: mean of both orientations
T11 chain: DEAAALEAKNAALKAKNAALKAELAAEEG

[12] = biological target: T12, APC2724-AA; assay: two-hybrid library CCmax; settings: mean of both orientations
T12 chain: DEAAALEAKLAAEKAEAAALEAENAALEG

[13] = biological target: T13, APC2811-AA; assay: two-hybrid library CCmax; settings: mean of both orientations
T13 chain: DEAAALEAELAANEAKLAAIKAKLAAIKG

[14] = biological target: T14, APC2981-AA; assay: two-hybrid library CCmax; settings: mean of both orientations
T14 chain: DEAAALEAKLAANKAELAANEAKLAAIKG

[15] = biological target: T15, APC3265-AA; assay: two-hybrid library CCmax; settings: mean of both orientations
T15 chain: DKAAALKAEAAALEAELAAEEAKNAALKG

[16] = biological target: T16, APC3323-AA; assay: two-hybrid library CCmax; settings: mean of both orientations
T16 chain: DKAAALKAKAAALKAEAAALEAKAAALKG

[17] = biological target: T17, APC3354-AA; assay: two-hybrid library CCmax; settings: mean of both orientations
T17 chain: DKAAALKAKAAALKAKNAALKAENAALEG

[18] = biological target: T18, APC3881-AA; assay: two-hybrid library CCmax; settings: mean of both orientations
T18 chain: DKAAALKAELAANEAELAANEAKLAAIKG

[19] = biological target: T19, APC4100-AA; assay: two-hybrid library CCmax; settings: mean of both orientations
T19 chain: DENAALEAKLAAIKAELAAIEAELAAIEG

[20] = biological target: T20, APC4336-AA; assay: two-hybrid library CCmax; settings: mean of both orientations
T20 chain: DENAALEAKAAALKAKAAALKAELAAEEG

[21] = biological target: T21, APC5009-AA; assay: two-hybrid library CCmax; settings: mean of both orientations
T21 chain: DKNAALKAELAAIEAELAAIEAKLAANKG

[22] = biological target: T22, APC542-AA; assay: two-hybrid library CCmax; settings: mean of both orientations
T22 chain: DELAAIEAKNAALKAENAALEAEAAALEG

[23] = biological target: T23, APC5531-AA; assay: two-hybrid library CCmax; settings: mean of both orientations
T23 chain: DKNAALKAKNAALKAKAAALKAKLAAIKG

[24] = biological target: T24, APC6088-AA; assay: two-hybrid library CCmax; settings: mean of both orientations
T24 chain: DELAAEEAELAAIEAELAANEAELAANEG

[25] = biological target: T25, APC7524-AA; assay: two-hybrid library CCmax; settings: mean of both orientations
T25 chain: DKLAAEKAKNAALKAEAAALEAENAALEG

[26] = biological target: T26, APC8401-AA; assay: two-hybrid library CCmax; settings: mean of both orientations
T26 chain: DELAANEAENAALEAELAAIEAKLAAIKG

[27] = biological target: T27, APC8516-AA; assay: two-hybrid library CCmax; settings: mean of both orientations
T27 chain: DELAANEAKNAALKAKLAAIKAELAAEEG

[28] = biological target: T28, APC9141-AA; assay: two-hybrid library CCmax; settings: mean of both orientations
T28 chain: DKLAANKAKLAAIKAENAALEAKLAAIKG

[29] = biological target: T29, APC9182-AA; assay: two-hybrid library CCmax; settings: mean of both orientations
T29 chain: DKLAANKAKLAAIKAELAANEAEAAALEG

[30] = biological target: T30, APC9291-AA; assay: two-hybrid library CCmax; settings: mean of both orientations
T30 chain: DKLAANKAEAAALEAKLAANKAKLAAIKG

[31] = biological target: T31, APC9806-AA; assay: two-hybrid library CCmax; settings: mean of both orientations
T31 chain: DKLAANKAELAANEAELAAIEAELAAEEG

[32] = biological target: T32, Core_INNI-es_KEKE; assay: two-hybrid library CCmax; settings: mean of both orientations
T32 chain: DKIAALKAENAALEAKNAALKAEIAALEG

[33] = biological target: T33, Core_NIII-es_KKKK; assay: two-hybrid library CCmax; settings: mean of both orientations
T33 chain: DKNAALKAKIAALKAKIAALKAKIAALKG

[34] = biological target: T34, 4H166-bH; assay: two-hybrid library CCNG1
T34 chain: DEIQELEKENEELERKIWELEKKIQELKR

[35] = biological target: T35, 4H2143-bH; assay: two-hybrid library CCNG1
T35 chain: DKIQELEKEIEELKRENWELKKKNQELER

[36] = biological target: T36, 4H2162-bH; assay: two-hybrid library CCNG1
T36 chain: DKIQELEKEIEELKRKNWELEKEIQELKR

[37] = biological target: T37, 4H2233-bH; assay: two-hybrid library CCNG1
T37 chain: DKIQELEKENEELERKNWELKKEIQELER

[38] = biological target: T38, 4H2253-bH; assay: two-hybrid library CCNG1
T38 chain: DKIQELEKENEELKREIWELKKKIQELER

[39] = biological target: T39, 4H235-bH; assay: two-hybrid library CCNG1
T39 chain: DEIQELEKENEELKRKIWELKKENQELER

[40] = biological target: T40, 4H2444-bH; assay: two-hybrid library CCNG1
T40 chain: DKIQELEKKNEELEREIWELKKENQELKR

[41] = biological target: T41, 4H2518-bH; assay: two-hybrid library CCNG1
T41 chain: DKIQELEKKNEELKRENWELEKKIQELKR

[42] = biological target: T42, 4H2585-bH; assay: two-hybrid library CCNG1
T42 chain: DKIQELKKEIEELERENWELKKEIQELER

[43] = biological target: T43, 4H264-bH; assay: two-hybrid library CCNG1
T43 chain: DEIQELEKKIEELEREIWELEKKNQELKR

[44] = biological target: T44, 4H2760-bH; assay: two-hybrid library CCNG1
T44 chain: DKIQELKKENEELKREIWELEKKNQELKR

[45] = biological target: T45, 4H2859-bH; assay: two-hybrid library CCNG1
T45 chain: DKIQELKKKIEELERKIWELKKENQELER

[46] = biological target: T46, 4H2931-bH; assay: two-hybrid library CCNG1
T46 chain: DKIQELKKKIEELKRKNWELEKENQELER

[47] = biological target: T47, 4H3041-bH; assay: two-hybrid library CCNG1
T47 chain: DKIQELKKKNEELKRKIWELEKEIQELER

[48] = biological target: T48, 4H3297-bH; assay: two-hybrid library CCNG1
T48 chain: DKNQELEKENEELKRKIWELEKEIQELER

[49] = biological target: T49, 4H3364-bH; assay: two-hybrid library CCNG1
T49 chain: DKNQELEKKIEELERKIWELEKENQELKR

[50] = biological target: T50, 4H3381-bH; assay: two-hybrid library CCNG1
T50 chain: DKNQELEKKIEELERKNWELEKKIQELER

[51] = biological target: T51, 4H349-bH; assay: two-hybrid library CCNG1
T51 chain: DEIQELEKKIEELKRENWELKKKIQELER

[52] = biological target: T52, 4H56-bH; assay: two-hybrid library CCNG1
T52 chain: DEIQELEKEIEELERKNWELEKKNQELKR

[53] = biological target: T53, 4H730-bH; assay: two-hybrid library CCNG1
T53 chain: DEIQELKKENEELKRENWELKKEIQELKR

[54] = biological target: T54, 4H796-bH; assay: two-hybrid library CCNG1
T54 chain: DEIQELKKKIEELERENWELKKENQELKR

[55] = biological target: T55, 4H932-bH; assay: two-hybrid library CCNG1
T55 chain: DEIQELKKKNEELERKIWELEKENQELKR

[56] = biological target: T56, 4H949-bH; assay: two-hybrid library CCNG1
T56 chain: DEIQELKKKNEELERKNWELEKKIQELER

[57] = biological target: T57, 4H967-bN; assay: two-hybrid library CCNG1
T57 chain: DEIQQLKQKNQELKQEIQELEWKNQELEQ

Binder: DEIAALEAKNAALKAKIAALKAKNAALKG [Core_ININ-es_EKKK]
interaction score [1]: 2.37

Binder: DKLAAIKAKLAAIKAKLAAIKAKNAALKG [APC1115-AA]
interaction score [2]: -0.803 | interaction score [3]: -1.35 | interaction score [4]: -1.84 | interaction score [5]: -1.74 | interaction score [6]: 0.216 | interaction score [7]: -1.42 | interaction score [8]: -1.67 | interaction score [9]: -1.58 | interaction score [10]: -1.49 | interaction score [11]: -1.69 | interaction score [12]: -1.69 | interaction score [13]: -1.19 | interaction score [14]: -1.43 | interaction score [15]: -1.52 | interaction score [16]: -1.52 | interaction score [17]: -1.93 | interaction score [18]: -1.47 | interaction score [19]: 0.913 | interaction score [20]: -1.61 | interaction score [21]: -0.451 | interaction score [22]: -1.93 | interaction score [23]: -1.86 | interaction score [24]: -1.12 | interaction score [25]: -1.68 | interaction score [26]: -1.04 | interaction score [27]: -1.51 | interaction score [28]: -1.58 | interaction score [29]: -1.98 | interaction score [30]: -1.83 | interaction score [31]: -1.67

Binder: DENAALEAEIAALEAEIAALEAEIAALEG [Core_NIII-es_EEEE]
interaction score [33]: 2.01

The remaining lines, values ahead:

interaction score [32]: 2.27
Binder: DEIAALEAKNAALKAENAALEAKIAALKG [Core_INNI-es_EKEK]

interaction score [34]: 0.0371 | interaction score [35]: 0.23 | interaction score [36]: 1.49 | interaction score [37]: 0.81 | interaction score [38]: 1.03 | interaction score [39]: -0.624 | interaction score [40]: 0.192 | interaction score [41]: 1.54 | interaction score [42]: 0.621 | interaction score [43]: 0.0745 | interaction score [44]: 0.896 | interaction score [45]: 1.65 | interaction score [46]: 1.25 | interaction score [47]: 1.58 | interaction score [48]: 1.62 | interaction score [49]: -1.32 | interaction score [50]: 0.522 | interaction score [51]: 0.968 | interaction score [52]: -1.05 | interaction score [53]: 0.00471 | interaction score [54]: 0.588 | interaction score [55]: 0.193 | interaction score [56]: 0.814 | interaction score [57]: -0.508
Binder: DEIQELEKENEELERKIWELEKKIQELKR [4H166-bH]

Source: article PMC10397247
